# Assay results as given in patent US20230242902A1, “A HIGHLY ERROR-PRONE […] R[…] FOR TARGETED CONTINUOUS EVOLUTION IN VIVO” (The Regents of the University of California, priority 2017, published 2023).
# Tests used:
# [1] = test system: p2-encoded leu2*; assay: p2 leu2* fluctuation tests in GA-Y021 (p2 mutation rate reporter strain); assay type: cell-based, S. cerevisiae
# Description: For fluctuation tests used to measure p2 mutation rates, leu2* served as a marker for detecting mutational events. leu2* is a disabled version of LEU2, where Q180 is replaced with a TAA stop codon. Q180 is a permissive site where mutation to any other codon other than TAG and TGA results in functional reversion to LEU2. These mutational events can be detected by plating scores of parallel cultures on medium lacking leucine and counting the number distribution of functional LEU2 mutants.
# For TP-DNAP2 library screening, each library member was subjected to small-scale leu2* fluctuation tests with six replicates. 190 library members from each yeast library transformation were arrayed and inoculated into liquid SC medium lacking uracil and histidine, and passaged three times at 1:10,000 dilutions. mKate2 fluorescence was measured at every passage on a microplate reader (TECAN Infinite® 200 PRO, settings: λex=588, λem=633) to track p2 copy number stabilization. To perform fluctuation tests, each library member was diluted 1:10,000 into liquid SC medium buffered to pH 5.8 and lacking uracil, histidine, tryptophan, and dilutions were split into six 100 μL replicates. Cultures were grown for 48 hours at 30° C. to reach saturation. Saturated cultures were washed with 200 μL 0.9% NaCl to remove residual leucine and resuspended in 35 μL of 0.9% NaCl. 10 μL of this resuspension was spot plated onto solid SC medium buffered to pH 5.8 and lacking uracil, histidine, tryptophan and leucine. Spot plates were allowed to dry and incubated at 30° C. Colonies were counted after 5 days. Colony counts were used to calculate the expected number of LEU2 functional mutants (m), using the p0 method (Foster, 2006, Methods Enzymol, 409:195-213).
# To precisely measure p1 and p2 per-base substitution mutation rates, several modifications were made to the small-scale protocol. First, 36 replicates were performed for reconfirmation of candidate TP-DNAP2 mutators, and 48 replicates for genomic and mutual orthogonality experiments. Titers were also determined for each strain after spot plating by pooling the residual volume from 4 replicates and plating dilutions on YPD. The expected number of LEU2 functional mutants (m) was determined by the Ma-Sandri-Sarkar maximum likelihood estimator (as calculated by the FALCOR tool and corrected for partial plating (Foster, 2006, Methods Enzymol, 409:195-213; Sarkar et al., 1992, Genetica, 85:173-179; Hall et al., 2009, Bioinformatics, 25:1564-1565). The mean mKate2 fluorescence was determined from 50,000 event counts on Attune™ NxT Flow Cytometer and converted to p2 copy number by using a calibration curve. To determine per-base substitution rates, the corrected m was normalized to the average cell titer, the p2 copy number, and the target size for functional leu2* reversion (2.33 bp). 95% confidence intervals were similarly scaled.
# To identify error-prone TP-DNAP2s, a small library of TP-DNAP2s diversified at locations hypothesized to be responsible for DNAP fidelity was screened. […] Four distinct site-saturation mutagenesis libraries were generated, each diversifying S370, Y424, L474, or F882 in TP-DNAP2 encoded on pGA55-reTP-DNAP2. Due to unsuccessful attempts to generate a strain with a full deletion of p2-encoded TP-DNAP2 and simultaneous integration of mKate, URA3, and leu2*, each library was transformed into GA-Y021 for convenient screening. However, since GA-Y021 still encodes wt TP-DNAP2 on p2-delORF1-mUL*, p2 mutation rates measured in this format are the result of in tandem replication of p2 by wt TP-DNAP2 and each TP-DNAP2 variant encoded in trans. 6-fold coverage of each library was maintained by picking 190 yeast colonies and passaging under selection for URA3 to stabilize the copy number of p2-delORF1-mUL* in the presence of the newly introduced TP-DNAP2 variants. […]
# [2] = test system: p1-encoded leu2 (Q180*); assay: Large-scale p1 fluctuation tests of p1-encoded leu2 (Q180*), per-base substitution rate; assay type: cell-based, S. cerevisiae; conditions: per-base substitution rate, p1-encoded leu2 (Q180*), large-scale fluctuation test
# Description: All three TP-DNAP1 libraries were screened through small scale p1 fluctuation tests in a metastable S. cerevisiae strain, OR-Y24. OR-Y24 contains w.t. p1 and recombinant p1 that lacks w.t. TP-DNAP1, and instead, encodes a standardized fluorescence reporter of p1 copy number (Table 1), and a disabled version of the LEU2 selection marker (leu2 (Q180*)). As described previously (Ravikumar et al., 2014), leu2 (Q180*) contains a C→T mutation at base 538 in LEU2 at a site permissive to all single point mutants that generate missense mutations. Reversion to functional LEU2 can be detected on medium lacking leucine.
# Large-scale fluctuation tests of p1-encoded leu2 (Q180*) were performed to precisely determine per-base substitution rates for individually cloned or isolated TP-DNAP1 variants. Large-scale p1 fluctuation tests are performed similarly to small-scale p1 fluctuation tests, with several modifications. First, large-scale p1 fluctuation tests were typically performed with 36-48 replicates. For highly error-prone TP-DNAP1s obtained from later rounds of screening, fewer replicates (3-16) were used, which is sufficient for similar precision (Foster et al., 2006). Second, p1 copy number was determined by the flow cytometry method, described below. Third, cell titers were measured for each fluctuation test to estimate the average number of cells per culture. Cell resuspensions were diluted and plated on solid SC-UH medium, and colony counts were determined after incubation at 30° C. for 2-3 days. Alternatively, cell resuspensions were diluted and subject to an event-count measurement via flow cytometry. Fourth, inoculums of highly error-prone TP-DNAP 1 s occasionally contained pre-existing mutants, despite the 1:10,000 dilution, so mutant frequencies were estimated by plating pre-cultures on solid SC-UHLW, pH 5.8 medium. Plates were incubated for 2-3 days, in parallel with cultures grown for fluctuation tests. Pre-culture mutant titers were counted to estimate the number of replicates in the fluctuation test expected to contain pre-existing mutants (n). Revertants were counted from all replicates of the fluctuation tests, counts were sorted, and n replicates with the highest counts were omitted from calculations.
# To calculate per-base substitution rates, fluctuation data were analyzed by the maximum likelihood method, implemented using newton.LD.plating in rSalvador 1.7 (Zheng, 2017). Phenotypic mutation rates were calculated by normalizing to the average number of cells per culture. Phenotypic mutation rates were divided by the measured p1 copy number and by the number of ways leu2 (Q180*) can revert to LEU2 (2.33 for the ochre codon) to yield per-base substitution rates. 95% confidence intervals were similarly scaled by these factors. All data related to large-scale p1 fluctuation tests are fully described in Table 2.
Molecule,"Per-base substitution rate pf p2 ([1]; TP-DNAP2 variant in trans, wt TP-DNAP2 in cis, 36 replicates, (95% C.I.))",Fold increase ([1]; p2 substitution rate over no variant in trans),Mutation rate (s.p.b.) [2]
"S370P: TP-DNAP2 variant (protein, listed as Kluyveromyces lactis) MNDELAFLNSQIDDYSDDIEFLRTEVFRINRYSKSIYSLMKNSSKEAIKETIEFNKYGQEIHSKIKEKEISLIEAIKLMEKKYKYLRSLNKTKDKSKKKKIHTKDIETLKTIYKTKADFDIRNFKNAETFTYENYSLLIPSEKELIDLIPEIEEDYSYYFYVSLTITGPTIFGGVTRKVPIIDTYGDINKDFYNKIKENITKVLDRVPFYEEKESEIICKKVLITLTVNKWESIDKWYKNVKSKSKKFKDFTLFLASDTSKNCVQQCVEYLGGKWNTNYSLEKMIPQQKIVTYIPLLMDIQYVQSMEDLISDFDEPNTDCKNIARLLKWNGHMGVITKIDKDVKINRIQRKRIIDVENKEVKEVFFDIEPFSDETKHQIPYLICWSYLGELYYRTGKNCIKEFVEEILSYNVDIILYAWYGSGYDYQHVLPYMKSKCIKDKYIIKNNMITYGELYYENAIIYLKDPYLFILTSLDKASKAFNVINKGEFPHSIIHSWEDLNKILPNWVKIQKRMIEYKDDNKLNIYYKNIEIFENDRNYNTILENAIEYCKVDVLAMEKVWIKFKKLLEKNLNITVSVKTFTLSQLSMKIMESKLPKYVKLYVPTLEEYSKIRNAIYGGRVISKNGIYEENIVYADVVSLYPSAMKLLKHSYGKPKLVDYIDFEKHGIYRVTLLNKHDQEPKNYLNFVPRRINRKLTWEWFKIHEGWYHTYDLIIAKSEGFDIYCHEGFEYPEKDYIFNDFIDTLYSMKETHTACSCEEQPCPIRMVAKIALNGGGYGKFVQKPIDKEIYIVKRDVVAGECDKLQENENGEICIGKRLVKRPLFYNLDSENYDKMIIEKEDEPIYSTQCGISILSASRYRLYKLCKQFENIDIIYSDTDSIFVKQKSVDWELFKSKCGSELGQLDSTIDDTKNAIISKMYIGGAKMYAFEYLNNKNKLITKLHCKGVPNYMLSLNQFKYLMESPDNTIAYKFEIIRRKLVNVITKDLIKDIKQT",50.1 (32.4-70.4) ×10^−10,8.4,–
"V774I, L900S (protein) MDYKDKALNDLRNVYADFDSLPLDFRQILIKDRATLLQKEDVEKKILERQEDAKKYAEYLKQSEIPERISLPNIKRHKGVSISFEETSEDMVLEPRPFIFDGLNIRCFRRETIFSLKNKILNMVKESSSFKNVSRQSVSFMYFKIFNKGKVIASTKSVNIYEDKIDERLEDLCNNFDDVLKKIIDVTYGYESLFVSETYSYVIFYAKSIYFPQPRCVNNWGNNIPNILTFDSFKLFTANKNNVSCIKQCSRFLWQKDFNTLEEMIEYKNGNICIVTPQLHINDVRDIKSFNDIRLYSESPIKTFSVIDNTITYLFYFKEHLGVIFNITKSRHDRRVTKFSPLSKFSDVKNITVCFDIESYFDPEKESNQVNIPFICCASIIYNKVIGNIVDFEGRDCVAQMIEYVVDICGELNISSVELIAHNGGGYDFHYILSSMYNPAAIKNILIRNNSFISFNFAHDGVKFSVKDSYSFLLCSLANASKAFLNEETFKKTDFPHHDLKTADDLYKVYKEWSSVNTEINHVVEKEKLLITSEHIVNFTKNDKSKTLIEWSKDYCRNDVLVLSKVWLEFKNAVEDIFNCELVDQTMTLAGLSYKLFQANMPFDVELRHPNKEDYFNMREALIGGRCISVNGIYKDVLCLDVKSLYPASMAFYDQPYGSFKRVSSRPKDELGIYYVRVTPNRNNKSNFFPIRSHNKITYNNFEESTYIAWYTNVDIDIGLSEGHNIEYIPFDSYGNIGYSWSKKGKIFEKYIKDVLYKLKIKYEKQNNKVKRNIIKIIMNSLWGKFAQKWVNFEYFIKSEDDIDFESEEAYKIWDTDFMLIKKIKESTYSSKPIQNGVFTLSWARYHMKSIWDAGAKEGAECIYSDTDSIFVHKEHFKKNAKFMLNGLKVPIIGSEVGQSELECEFDKLLCAGKKQYMGFYTYFQDGKPCIKEKKRFKGIPSNYIIPELYAHLLSGADKEAKIQFLKFRREWGSVKGYIENKTVKAT",–,–,1.10 × 10^−7 s.p.b.
"V774I, F968C (protein) MDYKDKALNDLRNVYADFDSLPLDFRQILIKDRATLLQKEDVEKKILERQEDAKKYAEYLKQSEIPERISLPNIKRHKGVSISFEETSEDMVLEPRPFIFDGLNIRCFRRETIFSLKNKILNMVKESSSFKNVSRQSVSFMYFKIFNKGKVIASTKSVNIYEDKIDERLEDLCNNFDDVLKKIIDVTYGYESLFVSETYSYVIFYAKSIYFPQPRCVNNWGNNIPNILTFDSFKLFTANKNNVSCIKQCSRFLWQKDFNTLEEMIEYKNGNICIVTPQLHINDVRDIKSFNDIRLYSESPIKTFSVIDNTITYLFYFKEHLGVIFNITKSRHDRRVTKFSPLSKFSDVKNITVCFDIESYFDPEKESNQVNIPFICCASIIYNKVIGNIVDFEGRDCVAQMIEYVVDICGELNISSVELIAHNGGGYDFHYILSSMYNPAAIKNILIRNNSFISFNFAHDGVKFSVKDSYSFLLCSLANASKAFLNEETFKKTDFPHHDLKTADDLYKVYKEWSSVNTEINHVVEKEKLLITSEHIVNFTKNDKSKTLIEWSKDYCRNDVLVLSKVWLEFKNAVEDIFNCELVDQTMTLAGLSYKLFQANMPFDVELRHPNKEDYFNMREALIGGRCISVNGIYKDVLCLDVKSLYPASMAFYDQPYGSFKRVSSRPKDELGIYYVRVTPNRNNKSNFFPIRSHNKITYNNFEESTYIAWYTNVDIDIGLSEGHNIEYIPFDSYGNIGYSWSKKGKIFEKYIKDVLYKLKIKYEKQNNKVKRNIIKIIMNSLWGKFAQKWVNFEYFIKSEDDIDFESEEAYKIWDTDFMLIKKIKESTYSSKPIQNGVFTLSWARYHMKSIWDAGAKEGAECIYSDTDSIFVHKEHFKKNAKFMLNGLKVPIIGSEVGQLELECEFDKLLCAGKKQYMGFYTYFQDGKPCIKEKKRFKGIPSNYIIPELYAHLLSGADKEAKIQFLKCRREWGSVKGYIENKTVKAT",–,–,1.14 × 10^−7 s.p.b.
